Results reported in patent publication US20210214454A1.

Experiments:
[1] = target: cynomolgus CD40 protein expressed on CHO-S cells (cynomolgus) (UniProt G7PG38); assay: flow cytometry on CHO-S cells transiently expressing cynomolgus CD40; AF647 anti-human IgG (H+L) secondary; GeoMean RL1-H
[2] = target: human CD40 protein expressed on cells (human) (UniProt P25942); assay: flow cytometry on CHO-S cells transiently expressing human CD40; AF647 anti-human IgG (H+L) secondary; GeoMean RL1-H
human CD40 protein expressed on cells (human), sequence (P25942 21-277 limits assumed): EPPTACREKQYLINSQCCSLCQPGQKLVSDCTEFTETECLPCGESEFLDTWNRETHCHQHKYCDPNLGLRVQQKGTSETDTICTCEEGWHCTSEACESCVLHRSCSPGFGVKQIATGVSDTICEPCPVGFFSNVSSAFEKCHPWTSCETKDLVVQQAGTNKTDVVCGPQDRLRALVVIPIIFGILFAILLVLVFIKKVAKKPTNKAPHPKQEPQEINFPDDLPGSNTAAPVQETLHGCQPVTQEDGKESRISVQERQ

- EC50 (read off the curve) [1]: 0.08 µg/mL
- EC50 (read off the curve) [2]: 0.07 µg/mL
Substance: selicrelumab analogue (antibody)
